A word on the IC50: it is the midpoint of a concentration-inhibition curve.

Results on one molecule are retold here after patent US20060058230A1 (published 2006).

Non-standard residues stand in square brackets, D forms with d. No end group written: not given here. 2Nal = N[C@@H](Cc1ccc2ccccc2c1)C(=O)O; Nle = CCCC[C@H](N)C(=O)O; βAla = NCCC(=O)O

Test [1] concerns the target T1, recombinant hPTH1-receptor (human, UniProt Q03431 27-593).
T1 construct: whole, on cells; also called PTH1-Rc; HEK293/C21 cell line
T1 sequence (looked up): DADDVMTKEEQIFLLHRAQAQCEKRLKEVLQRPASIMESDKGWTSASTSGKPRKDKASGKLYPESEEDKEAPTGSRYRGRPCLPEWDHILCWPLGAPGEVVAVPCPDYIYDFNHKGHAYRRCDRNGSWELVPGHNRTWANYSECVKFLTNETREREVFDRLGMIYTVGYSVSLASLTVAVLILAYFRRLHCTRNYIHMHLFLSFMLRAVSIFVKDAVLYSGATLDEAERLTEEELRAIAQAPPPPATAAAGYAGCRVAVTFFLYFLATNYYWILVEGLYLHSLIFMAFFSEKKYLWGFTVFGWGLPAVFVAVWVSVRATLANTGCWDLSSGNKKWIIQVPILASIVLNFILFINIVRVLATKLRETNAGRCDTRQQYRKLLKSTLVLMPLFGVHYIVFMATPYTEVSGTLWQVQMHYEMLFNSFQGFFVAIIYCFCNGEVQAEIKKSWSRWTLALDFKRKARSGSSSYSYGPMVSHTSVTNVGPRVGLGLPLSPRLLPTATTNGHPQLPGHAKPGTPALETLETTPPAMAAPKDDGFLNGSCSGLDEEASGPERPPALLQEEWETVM
As to the kind of experiment: competition with 125I-[Nle8,18,Nal23,Tyr34]bPTH(1-34)NH2 on HEK293/C21 cells with hPTH1-receptor. The protocol: Human embryonic kidney (HEK293) cells, stably transfected with recombinant hPTH1-receptor (HEK293/C21 cell line, ˜400,000 receptors/cell) (Pines, M., Adams, A. E., Stueckle, S., Bessalle, R., Rashti-Behar, V., Chorev, M., Rosenblatt, M., and Suva, L. J. Endocrinology 1994, 135, 1713-1716), were maintained in D-MEM medium supplemented with 10% fetal bovine serum and […] glutamine at 37° C. in a humidified atmosphere of 95% air/5% CO₂. The medium was changed every 3-4 days, and the cells were subcultured every week. Ligand stimulated adenylyl cyclase activity and radioreceptor competition binding assays were performed on confluent cultures, 1-3 days after a change of medium.
[Nle^{8,18},Nal²³,Tyr³⁴]bPTH(1-34)-NH₂ was radioiodinated and the crude material was purified as previously described (Roubini, E., Duong, L. T., Gibbons, S. W., Leu, C. T., Caulfield, M. P., Chorev, M., and Rosenblatt, M. Biochemistry 1992, 31, 4026-4033). Briefly, 67 μg of peptide in 50 μL phosphate buffer, pH 7.4, in a borosilicate tube, coated with 10 μg Iodogen® (Pierce Chemical), were treated at room temperature with 2 mCi [¹²⁵I]Na for 12 min, followed by dilution with 200 μL of 0.1% TFA in water.
Cells were plated in 24-well tissue culture dishes (Corning Glass Works, Corning, N.Y.) and grown to subconfluency. […] After incubation, cells were washed twice with PBS and lysed with 0.1 M NaOH. Radioactivity in the lysate was measured in a γ-counter (Analytic GammaTrac™ 1193).

Test [2] deals with T1, recombinant hPTH1-receptor. As to the kind of experiment: cell-based or functional assay.

B1: [Nle^8,β-Ala^18, Nal^23, Tyr^34]bPTH(1-34)NH2 (peptide)
peptide: AVSEIQF[Nle]HNLGKHLSS[βAla]ERVE[2Nal]LRKKLQDVHNY-NH2
modifications: N-terminus assumed
SMILES: CCCC[C@H](NC(=O)[C@H](Cc1ccccc1)NC(=O)[C@H](CCC(N)=O)NC(=O)[C@@H](NC(=O)[C@H](CCC(=O)O)NC(=O)[C@H](CO)NC(=O)[C@@H](NC(=O)[C@H](C)N)C(C)C)[C@@H](C)CC)C(=O)N[C@@H](Cc1c[nH]cn1)C(=O)N[C@@H](CC(N)=O)C(=O)N[C@@H](CC(C)C)C(=O)NCC(=O)N[C@@H](CCCCN)C(=O)N[C@@H](Cc1c[nH]cn1)C(=O)N[C@@H](CC(C)C)C(=O)N[C@@H](CO)C(=O)N[C@@H](CO)C(=O)NCCC(=O)N[C@@H](CCC(=O)O)C(=O)N[C@@H](CCCNC(=N)N)C(=O)N[C@H](C(=O)N[C@@H](CCC(=O)O)C(=O)N[C@@H](Cc1ccc2ccccc2c1)C(=O)N[C@@H](CC(C)C)C(=O)N[C@@H](CCCNC(=N)N)C(=O)N[C@@H](CCCCN)C(=O)N[C@@H](CCCCN)C(=O)N[C@@H](CC(C)C)C(=O)N[C@@H](CCC(N)=O)C(=O)N[C@@H](CC(=O)O)C(=O)N[C@H](C(=O)N[C@@H](Cc1c[nH]cn1)C(=O)N[C@@H](CC(N)=O)C(=O)N[C@@H](Cc1ccc(O)cc1)C(N)=O)C(C)C)C(C)C
notes: Synthetic analog of bovine PTH(1-34), carboxamide at the C-terminus
As to B1, the IC50 in test [1] stood at 285 nM. Also, the “EC50 (half maximal stimulation of adenylate cyclase)” value in test [2] is 3.9 nM.
